Assay results reported in patent US20220204583A1.

Target: recombinant transferrin receptor ectodomain (UniProt Q62351)
Experiment: competition: 8D3 pre-incubated with 2 µM soluble rTfR ectodomain, then binding to live bEnd.3 cells at 4° C., IRDye detection

Sequence of recombinant transferrin receptor ectodomain (Q62351 89-763 limits assumed): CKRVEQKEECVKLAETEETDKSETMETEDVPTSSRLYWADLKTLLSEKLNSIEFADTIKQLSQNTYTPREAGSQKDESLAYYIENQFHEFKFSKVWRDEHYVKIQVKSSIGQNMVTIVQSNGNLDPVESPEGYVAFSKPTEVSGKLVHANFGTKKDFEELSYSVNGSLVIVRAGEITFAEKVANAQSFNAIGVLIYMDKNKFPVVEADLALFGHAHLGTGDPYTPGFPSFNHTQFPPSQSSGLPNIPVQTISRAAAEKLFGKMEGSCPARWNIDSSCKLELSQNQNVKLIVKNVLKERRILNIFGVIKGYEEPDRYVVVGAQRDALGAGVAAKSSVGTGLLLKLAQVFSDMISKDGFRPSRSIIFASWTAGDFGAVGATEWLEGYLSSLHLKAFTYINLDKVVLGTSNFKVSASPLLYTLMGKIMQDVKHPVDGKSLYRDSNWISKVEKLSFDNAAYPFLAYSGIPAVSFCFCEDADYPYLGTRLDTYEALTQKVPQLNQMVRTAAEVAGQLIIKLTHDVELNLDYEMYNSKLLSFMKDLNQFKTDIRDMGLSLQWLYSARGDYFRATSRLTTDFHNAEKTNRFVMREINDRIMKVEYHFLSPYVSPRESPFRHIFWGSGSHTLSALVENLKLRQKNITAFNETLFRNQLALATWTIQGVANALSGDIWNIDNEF

MBEC binding signal with rTfR competition, percent of the non-competition signal: 20%
B1: anti-transferrin receptor antibody (8D3) (antibody, from another filing, V domains shown)
VH: EVQLVESGGGLVQPGNSLTLSCVASGFTFSNYGMHWIRQAPKKGLEWIAMIYYDSSKMNYADTVKGRFTISRDNSKNTLYLEMNSLRSEDTAMYYCAVPTSHYVVDVWGQGVSVTVSS
VL: DIQMTQSPASLSASLEEIVTITCQASQDIGNWLAWYQQKPGKSPQLLIYGATSLADGVPSRFSGSRSGTQFSLKISRVQVEDIGIYYCLQAYNTPWTFGGGTKLELK
